# Measurements published in publication PMC3476531, “Synergy of Peptide and Sugar in O-GlcNAcase Substrate Recognition” (Chemistry & Biology, 2012).
# Changes are numbered by the printed parent chain. *: point of attachment. βGlcNAc = CC(=O)N[C@@H]1[C@@H](O)[C@H](O)[C@@H](CO)O[C@H]1*
# T1: human O-GlcNAcase (hOGA) Y69K (human) (UniProt O60502)
# T1 sequence: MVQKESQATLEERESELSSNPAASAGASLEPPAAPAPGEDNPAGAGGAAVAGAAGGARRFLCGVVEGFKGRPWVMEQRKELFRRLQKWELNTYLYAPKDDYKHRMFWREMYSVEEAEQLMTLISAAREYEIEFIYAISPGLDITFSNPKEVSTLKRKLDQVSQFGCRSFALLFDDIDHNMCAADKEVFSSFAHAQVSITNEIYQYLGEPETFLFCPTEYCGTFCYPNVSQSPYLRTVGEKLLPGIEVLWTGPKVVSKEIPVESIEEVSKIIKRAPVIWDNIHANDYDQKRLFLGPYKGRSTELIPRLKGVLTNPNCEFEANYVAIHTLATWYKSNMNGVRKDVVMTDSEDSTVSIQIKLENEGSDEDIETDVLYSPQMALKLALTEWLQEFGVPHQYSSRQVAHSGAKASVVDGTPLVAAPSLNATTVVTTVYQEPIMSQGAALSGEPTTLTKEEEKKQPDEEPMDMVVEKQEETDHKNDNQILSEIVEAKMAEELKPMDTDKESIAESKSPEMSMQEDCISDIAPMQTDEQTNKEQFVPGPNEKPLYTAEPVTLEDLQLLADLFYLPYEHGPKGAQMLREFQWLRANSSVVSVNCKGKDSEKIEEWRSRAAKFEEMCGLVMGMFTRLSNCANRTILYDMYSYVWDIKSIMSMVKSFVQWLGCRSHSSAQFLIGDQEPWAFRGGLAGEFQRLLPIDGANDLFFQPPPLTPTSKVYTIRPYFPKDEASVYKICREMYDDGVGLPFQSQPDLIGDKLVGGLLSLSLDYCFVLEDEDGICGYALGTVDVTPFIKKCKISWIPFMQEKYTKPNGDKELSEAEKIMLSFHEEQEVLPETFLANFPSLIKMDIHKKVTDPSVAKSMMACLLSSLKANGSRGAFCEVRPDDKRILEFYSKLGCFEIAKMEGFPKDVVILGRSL
# T2: human O-GlcNAcase (hOGA) Y69S (human) (UniProt O60502)
# T2 sequence: T1 sequence with K69S
# T3: human O-GlcNAcase (hOGA) Y69F (human) (UniProt O60502)
# T3 sequence: T1 sequence with K69F
# B1: TAB1 peptide PVSVPYS(O-GlcNAc)SAQSTS (peptide)
# peptide: Ac-PVSVPYS(βGlcNAc)SAQSTS-NH2
# SMILES: CC(=O)N[C@H]1[C@H](OC[C@H](NC(=O)[C@H](Cc2ccc(O)cc2)NC(=O)[C@@H]2CCCN2C(=O)[C@@H](NC(=O)[C@H](CO)NC(=O)[C@@H](NC(=O)[C@@H]2CCCN2C(C)=O)C(C)C)C(C)C)C(=O)N[C@@H](CO)C(=O)N[C@@H](C)C(=O)N[C@@H](CCC(N)=O)C(=O)N[C@@H](CO)C(=O)N[C@H](C(=O)N[C@@H](CO)C(N)=O)[C@@H](C)O)O[C@H](CO)[C@@H](O)[C@@H]1O
# How the values were obtained:
# [1] = target: T1, human O-GlcNAcase (hOGA) Y69K (human)
# [2] = target: T2, human O-GlcNAcase (hOGA) Y69S (human)
# [3] = target: T3, human O-GlcNAcase (hOGA) Y69F (human)
binder,measurement,setting,value
B1,KM of the glycopeptide substrate (substrate competition assay with 4MU-GlcNAc as reporter substrate),[1],> 4000 µM
same,KM of the glycopeptide substrate (substrate competition assay with 4MU-GlcNAc as reporter substrate),[2],> 4000 µM
same,KM of the glycopeptide substrate (substrate competition assay with 4MU-GlcNAc as reporter substrate),[3],1100 µM
